We go through two molecules from US20170233485A1 (Biogen, published 2017).

Experiment [1] addresses T1, human CD40 (cell surface) (human, UniProt P25942 20-277). Put plainly: cell-based or functional assay.
In experiment [2] the target is T1, human CD40 (cell surface). Put plainly: FACS, A647-conjugated mAb on primary B cells in human whole blood. For orientation: Flow cytometry measures light scatter and fluorescence of single cells or particles in a stream.
The target in experiment [3] is T2, mouse CD40 (cell surface) (mouse, UniProt P27512 20-289).
T2 construct: whole, on cells; also called murine CD40
T2 sequence (looked up): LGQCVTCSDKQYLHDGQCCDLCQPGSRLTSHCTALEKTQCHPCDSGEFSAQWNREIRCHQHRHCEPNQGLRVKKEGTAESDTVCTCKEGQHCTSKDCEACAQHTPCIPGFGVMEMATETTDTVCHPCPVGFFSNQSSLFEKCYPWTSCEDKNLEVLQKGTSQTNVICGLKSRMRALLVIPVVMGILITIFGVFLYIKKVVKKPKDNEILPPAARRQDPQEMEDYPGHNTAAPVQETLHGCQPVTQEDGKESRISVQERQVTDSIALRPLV
Put plainly: flow cytometry on 293E transfected cells.

Experiment [4] concerns the target T3, human C1q (human, UniProt P02745 23-245; P02746 28-253; P02747 29-245).
T3 construct: the three subunits are from general knowledge; also called Complement protein C1q
Put plainly: ELISA, titrated antibody coated, human C1q detected. How it is done:
It was also determined that Exemplary Anti-CD40 Antibody 1 is not capable of activating complement by testing its binding to C1q. The assay (adapted from Idusogie et al., J. Immunol., 164:4178-84 (2000)) was conducted in an ELISA format where titrations of the test antibodies are coated in the wells and binding of human C1q is detected with chicken IgY anti-human C1q (custom reagent from Ayes Labs) followed by a donkey F(ab′) 2 anti-chicken IgY HRP conjugate.
On the technique in general: ELISA stands for enzyme-linked immunosorbent assay.

Experiment [5] has as its target T4, human CD40 H78Q, full length, on 293E cells (human, UniProt P25942 20-277).
T4 construct: also called CN916
Put plainly: binding to CD40 SNP variants expressed on 293E cells (data not shown). From the text:
The prevalence of these SNPs is quite rare, believed to be at or below the 3% range. Exemplary Anti-CD40 Antibody 1 bound to 6 of the CD40 proteins encoded by DNA sequences containing SNPs comparably to WT CD40, but more weakly to H78Q and R90W (reduced plateau) and not quantifiably to C77F (data not shown).

The target in experiment [6] is T5, human FcγR CD64-GST fusion protein (human, UniProt P12314 16-292, limits assumed).
T5 construct: FcγR-GST fusion protein on anti-GST acceptor beads; also called FcγRI; not shown: GST
Put plainly: ALPHAscreen competition: test antibody displaces biotinylated IgG1 from FcγR-GST. How it is done: (§1) In order to confirm the expected reduced binding profile of Exemplary Anti-CD40 Antibody 1 to human FcγR, relative binding affinities were measured using Amplified Luminescent Proximity Homogeneous Assay (ALPHAscreen) technology from Perkin Elmer. With this technology, binding pairs are immobilized onto “donor” and “acceptor” beads. Upon laser excitation, donor beads release singlet oxygen that reacts with acceptor beads in close proximity (≦200 nm) generating a cascade of events that ultimately results in fluorescence emission at 520-620 nm.
(§2) The chimeric AKH3 antibody constructs with the human IgG1 and aglycosyl IgG4P/G1 Fc regions were included in the FcγR and C1q assays as Fc competent and Fc-effectorless comparators, respectively. The assay was performed in a competitive format in which binding of test antibodies to FcγR disrupts the interaction of biotinylated IgG1 and FcγR-GST fusion protein immobilized on Streptavidin donor beads and anti-GST acceptor beads respectively. The plates were read using an Envision plate reader (Perkin Elmer) and the resulting relative fluorescence units (RFU) were plotted versus the concentration of test IgG as shown in FIG. 26.

For experiment [7], the target named is T6, human FcγR CD32b-GST fusion protein (human, UniProt P31994 43-217, limits assumed).
T6 construct: FcγR-GST fusion protein on anti-GST acceptor beads; also called FcγRIIB; not shown: GST
T6 sequence (looked up): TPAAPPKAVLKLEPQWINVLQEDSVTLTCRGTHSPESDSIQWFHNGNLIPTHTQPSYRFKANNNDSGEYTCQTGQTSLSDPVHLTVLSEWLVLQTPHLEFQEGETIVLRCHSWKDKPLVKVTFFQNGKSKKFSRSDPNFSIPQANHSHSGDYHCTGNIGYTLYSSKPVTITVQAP
Described as above. How it is done:
as §1, §2

The target of experiment [8] is T7, human FcγR CD32a R131-GST fusion protein (human, UniProt P12318 34-217, limits assumed).
T7 construct: FcγR-GST fusion protein on anti-GST acceptor beads; also called FcγRIIa; not shown: GST
T7 sequence (looked up): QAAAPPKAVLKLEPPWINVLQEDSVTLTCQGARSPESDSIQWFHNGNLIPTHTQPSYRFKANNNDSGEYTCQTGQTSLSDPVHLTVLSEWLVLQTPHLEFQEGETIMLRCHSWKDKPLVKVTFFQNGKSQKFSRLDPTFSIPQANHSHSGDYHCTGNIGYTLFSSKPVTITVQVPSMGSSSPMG
The description is as above. How it is done: as §1, §2

The target of experiment [9] is T8, human FcγR CD16a V158-GST fusion protein (human, UniProt P08637 17-208, limits assumed).
T8 construct: FcγR-GST fusion protein on anti-GST acceptor beads; also called FcγRIIIA; not shown: GST
Described as above. How it is done: as §1, §2

“And” between values parts separate entries of the source, which are not always exact repeats. Equal values may be shown once.

T1 sequence (P25942 20-277 limits assumed): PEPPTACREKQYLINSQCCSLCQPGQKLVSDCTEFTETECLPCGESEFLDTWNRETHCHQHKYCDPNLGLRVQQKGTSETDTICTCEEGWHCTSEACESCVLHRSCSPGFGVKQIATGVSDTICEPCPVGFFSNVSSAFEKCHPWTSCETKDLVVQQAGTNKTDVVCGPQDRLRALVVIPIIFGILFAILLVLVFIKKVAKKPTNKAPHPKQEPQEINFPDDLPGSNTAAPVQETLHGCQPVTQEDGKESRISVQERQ
T8 sequence (P08637 17-208 F176V limits assumed): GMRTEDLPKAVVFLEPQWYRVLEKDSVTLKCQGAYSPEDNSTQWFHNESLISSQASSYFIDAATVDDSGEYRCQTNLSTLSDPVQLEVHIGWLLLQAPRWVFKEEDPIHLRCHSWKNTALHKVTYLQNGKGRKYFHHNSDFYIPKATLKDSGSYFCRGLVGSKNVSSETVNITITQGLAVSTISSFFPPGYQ
T4 sequence (P25942 20-277 H78Q limits assumed): as the sequence (P25942 20-277 limits assumed) above, with H59Q counted along it
T5 sequence (P12314 16-292 limits assumed): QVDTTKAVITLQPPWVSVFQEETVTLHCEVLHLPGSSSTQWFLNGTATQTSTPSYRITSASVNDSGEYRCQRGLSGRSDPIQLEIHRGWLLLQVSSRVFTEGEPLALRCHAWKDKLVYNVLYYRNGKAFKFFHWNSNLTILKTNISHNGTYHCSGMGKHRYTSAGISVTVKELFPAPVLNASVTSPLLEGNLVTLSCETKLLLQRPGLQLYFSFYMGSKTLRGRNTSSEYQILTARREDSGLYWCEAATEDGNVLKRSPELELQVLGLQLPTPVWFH
T3 sequence (P02745 23-245 limits assumed, chain 1 of 3): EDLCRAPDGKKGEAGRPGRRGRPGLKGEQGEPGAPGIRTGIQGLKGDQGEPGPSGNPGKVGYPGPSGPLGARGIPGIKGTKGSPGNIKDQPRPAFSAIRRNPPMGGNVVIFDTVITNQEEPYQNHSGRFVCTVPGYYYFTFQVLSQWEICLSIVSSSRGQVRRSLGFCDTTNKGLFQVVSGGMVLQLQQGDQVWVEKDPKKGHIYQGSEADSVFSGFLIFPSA
T3 sequence (P02746 28-253 limits assumed, chain 2 of 3): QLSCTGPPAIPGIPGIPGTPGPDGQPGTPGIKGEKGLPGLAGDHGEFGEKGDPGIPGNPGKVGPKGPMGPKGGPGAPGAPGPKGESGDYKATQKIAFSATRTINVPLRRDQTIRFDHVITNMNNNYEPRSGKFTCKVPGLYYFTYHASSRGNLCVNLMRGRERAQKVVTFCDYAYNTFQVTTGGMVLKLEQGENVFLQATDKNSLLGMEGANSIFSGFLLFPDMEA
T3 sequence (P02747 29-245 limits assumed, chain 3 of 3): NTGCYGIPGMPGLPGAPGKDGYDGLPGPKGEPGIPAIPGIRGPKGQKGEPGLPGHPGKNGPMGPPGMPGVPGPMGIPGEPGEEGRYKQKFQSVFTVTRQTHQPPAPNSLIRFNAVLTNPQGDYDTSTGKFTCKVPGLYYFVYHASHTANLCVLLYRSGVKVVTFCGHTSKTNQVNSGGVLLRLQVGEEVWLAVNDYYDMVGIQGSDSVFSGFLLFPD

B1: Agly hAKH3 IgG4P/IgG1 (antibody, V domains shown)
VH: EVQLVQSGAEVKKPGASVKVSCKASGYTFTTFPIEWVRQAPGQGLEWMGNFHPYNDDTKYNEKFKGRVTLTADKSTSTAYMELSRLRSEDTAVYYCARRGKLPFDSWGQGTTVTVSS
VL: DIQMTQSPSSLSASVGDRVTISCRASQDISNYLNWYQQKPGKVPKLLIYFTSRLRSGVPSRFSGSGSGTDYTLTISSLQPEDVATYYCQQDRKLPWTFGQGTKLEIK
For orientation: EC50 means the concentration needed to bring the measured effect to its halfway point. Higher therefore signals lower potency in that assay. Regarding B1, the “IC50, inhibition of CD40L+ Jurkat (D1.1) T cell stimulation of primary human B cells (ICAM-1/CD54 up-regulation, flow cytometry), five normal donors” value in experiment [1] is 11 ng/mL and 0.07 nM. The same molecule displayed an EC50 in experiment [2] of 0.5 nM.

B2: Exemplary Anti-CD40 Antibody 1 (antibody, human IgG4 S228P, kappa)
heavy: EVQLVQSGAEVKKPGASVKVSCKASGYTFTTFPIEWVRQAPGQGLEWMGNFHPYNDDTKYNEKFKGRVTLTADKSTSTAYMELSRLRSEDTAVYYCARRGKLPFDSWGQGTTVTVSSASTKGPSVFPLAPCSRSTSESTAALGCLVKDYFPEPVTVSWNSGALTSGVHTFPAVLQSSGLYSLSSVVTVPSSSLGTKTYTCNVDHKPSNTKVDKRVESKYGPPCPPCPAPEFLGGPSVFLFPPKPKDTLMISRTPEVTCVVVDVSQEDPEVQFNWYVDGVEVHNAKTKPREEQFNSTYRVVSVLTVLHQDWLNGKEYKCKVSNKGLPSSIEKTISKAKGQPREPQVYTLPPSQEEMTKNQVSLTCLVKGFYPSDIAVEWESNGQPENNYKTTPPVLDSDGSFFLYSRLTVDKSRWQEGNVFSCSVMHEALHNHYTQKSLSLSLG
light: DIQMTQSPSSLSASVGDRVTISCRASQDISNYLNWYQQKPGKVPKLLIYFTSRLRSGVPSRFSGSGSGTDYTLTISSLQPEDVATYYCQQDRKLPWTFGQGTKLEIKRTVAAPSVFIFPPSDEQLKSGTASVVCLLNNFYPREAKVQWKVDNALQSGNSQESVTEQDSKDSTYSLSSTLTLSKADYEKHKVYACEVTHQGLSSPVTKSFNRGEC
modifications: Alexa647 conjugate in some whole-blood assays; N-linked glycan on the heavy chain; neither is carried by the letters.
notes: Humanized IgG4/kappa with S228P (Kabat); also called hAKH3 IgG4P; AKH3 IgG4P; copies: 2 + 2
As for B2, the figures for the binding result in experiment [3], in experiment [4] and in experiment [5] were “no binding”, “no binding” and “binds”, respectively. Besides, the “fold reduction of binding against WT IgG1 (chAKH3 IgG1)” value in experiment [6] is roughly 150 fold; in [7] it was roughly 5 fold; in experiment [8] it was roughly 5 fold; in experiment [9], roughly 200 fold.
